Molecular target: the molecule itself
Experiment: AUC

B1: AmpDh2 (zinc protease of Pseudomonas aeruginosa), recombinant, without the 17-amino-acid N-terminal membrane anchor (enzyme)
chain: SSGPRLNTDYTSANQDSRVQFIVLHYTSTDLPHSLGILTHGGVSAHYLIGDDEPATVYRLVDENRRAWHAGVSEWQGRTWLNATSIGIEIVNQGYRDTPQGRVWYPFSEAQIQALIPLLKDIAKRHGITPDRIIGHSDIAPGRKVDPGPLFPWKRLADAGLVPWPKPGELARRLAELNGQLPDVRWFQQQLARHGYLVPQTGELEKDTRDVIGAFQMKYRPARFDGEPDLETAALLLAVPTS
  stoichiometry N: 2

From paper PMC3775653 (Journal of the American Chemical Society, 2013)
